{"source": "the NTF2 design screens of Basanta et al. (2020)", "data": [{"assay": "protease stability score; higher = more stable; yeast display proteolysis, trypsin and chymotrypsin;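 further: relative to predicted unfolded state with 0 unfolded-like and 1 meaning tenfold more protease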", "values": [{"sequence": "DEEEELLKDLLRKWLEAMRTGDWEELERLLDPHVRIHIGDKDIHGRELFIELHERELKRIKNVKIVIDDKHIEFQGDKARVDGKLQEQVGDKEITHRVIIIMRVIDGKFESMEVRYV", "protease stability score": 1.08}, {"sequence": "DEERKEYEDALTLFIEYLLTGDFERLEHLADPTTRLIVNGQEFHGRELVMRQLLEIRFHDHKLHDYKVVNGVAILDTRDRGIINGQETIFKTHIVLQKIDGRWVLRRYEIR", "protease stability score": 1.38}, {"sequence": "DDHERDAERAIKELMHNFETGNEDFLNEMADPNMRVIINGKEHIGWENFRHHLRRVLHELRIKRIHIRQVRVQGEWVNVISEFIGEVDGREHRVETSYILLKVNGRWTLHSMYFE", "protease stability score": 2.69}, {"sequence": "SEEEEYLRRVAELILRLLITGDEDEHHNLADPNTLVLIDINGVHIRDHGWWALRRWWEELERRVPGMRVRPRNMTVQGEKVILHMETVIGDKRLRLDFYHLVIDGKITSVEIKVDES", "protease stability score": 2.4}, {"sequence": "SEDSERAREVWEDLFKAILTGDEDLLRELVDPNVRLEIGDKELVGWEHMIYHLRDHLRRYKNMRLELRIRHVEHQGDKLHLNVLLILIQGDKRIEFEVEVLIEKVNGRWILKEIRIK", "protease stability score": 1.38}, {"sequence": "DEDTELVYRIIKRLKEYIKTGDEDSIKELLDPNARIEVGDKEIHGRDRFAHMLVEIWSKDHKVELKDSRTFPNHLEYDGVLREDIEIDGKRIHRTRKLIVLVRKVNGRWYVEEIIFH", "protease stability score": 2.19}, {"sequence": "SEIEELVERAEKEHLRTLMTGDWRLFEHNLDPNTKLELDYDGRKIERHGRRHMSHYLKELFKSLGIKHMHLEDSHIQGDKLELHLHFHIGDKTRNVIIIVRKVNGQWIVETLIVHEH", "protease stability score": 0.829}, {"sequence": "DERDEMSRHLVRLWIRLYRTGDWKELYDNLDPNARLIIGDKEYHGREEVVEIFLELAKRFKNVKVEFKEIHFQGDKMTLREEVRQGDWRVEVIIKVEFIDGKLHHVQIIFG", "protease stability score": 2.75}, {"sequence": "DEKEDHMRKIALILIKDWLTGNEESLRHMADPNVRVHIHQGNKNIHKHGMEALRELWEEIRIRHFNLERQNVINGVVFIDGRVDGEVDGRRVDTDVEVIIVIVNGRMKLLSRHIE", "protease stability score": 1.34}, {"sequence": "DEEKRDVDDAKEVWDRIFKTGDEHQLERNFDPNVRQHIDGREHVGREEFRKEFHKILLLLGVKHLRIEFHDEEYQGDKIILRGTLFFEVNGRIEIWIVTIIARKVNGQWLVHTVHHN", "protease stability score": 0.425}, {"sequence": "DETFEDAHKLFKKFWEDMRTGDESEIEKLLDPNDKVHQGEKQTHGREEASRTHQEDIRRVDVFERVHIDHIETQGDFAIIDSTWIIHFDGKRFTRKVIIFLVKINGQWKFHSITMR", "protease stability score": 0.71}, {"sequence": "DEDEKNMHIAMEIYRESVETGNEKMHRHLLDPHARIRFDGQEFHGWKDAHRFMHHRTHEWRDHHIQLRDRDYIDGRVHIRVIIYGEFNGVRTTRDIEIHVEKIDGRWYFTNLIFG", "protease stability score": 0.285}, {"sequence": "SEDEEQMKRFLDHWIHFLQTGDEEESNKLADPHTRMEIGDFELHGREEYRKWFRHIIERVDHTDVRTKDSDIVNGVAIHDIEIHIEVGDKRIRRKSEMVVLKVDGRWYIQRMHFI", "protease stability score": 0.846}, {"sequence": "DEFREIIRRAMEIYRHSERTGDEDTIREMVDPDVKLDIDGKEIVGWERLLEFLTRVDHIHLHLNNMKLQGDYVIHDGELRLNIDGRNISTRIVIIAEKVNGRWHMKHVEFR", "protease stability score": 1.24}, {"sequence": "SEEEQSARKVIEDLIRDLVTGDEKSLRRLMDPHVRFDIGDKELIGREEVLEFWRHIRIHDIKLEDVRLIDGRATVEGKLNGEINGVHHRLDEHIFIYKVDGRWVVHEIRII", "protease stability score": 1.53}, {"sequence": "DEDTQRREEWHHQFIMSMRTGDERLLLELVDPNYRSDINGVELHGWEFAEKLMRDAGVKHYELKRVHHIGDKMIVDGVTTFNGKERRVIFIARKIDGRWLITSSHFE", "protease stability score": 1.31}, {"sequence": "SEEDQLLHHQMETWRHMIHTGDEELLERFLDPTVRIEYDGQEHHGRETAAHLFRELAEKLGIEFEDLEIHETEIQGDKIRVDTILYVDINGRKLVFRTHTVWEKINGRWILREIKIE", "protease stability score": 0.043}, {"sequence": "SDEEHQWELAFRFWITILKTGDEDHFERLADPHYLLQIGDKHVVGREQIAREIEKYRRELGVDHSHFDVDHIQVVGDKVEIQGSLEIRVGDKSIHHTTRTIIRKVDGRWLLKKVHFG", "protease stability score": 1.23}, {"sequence": "SEDDKVVEEIARLWLHWVLTGDEEHLRELLDPHVRLHIDGRTYIGREEFLHKFHELRIHRFELKSIHVIGDKAQVDGHQDYKYNGKRIHLDTKVDLVVVDGVMHEIHIHLK", "protease stability score": 1.78}, {"sequence": "SEDERDAHRAWEIWLKTLETGNEEDMLKLMDPNVRIIIGDKHHHGREELEKILRRYDHIDMEHVHLRHLEVQGEKVIYIGEIHMVFHFNGVTRRLHTEAILILTKVNGRWSQKSLEIK", "protease stability score": 1.32}]}]}
